In experiment [1] the target is cynomolgus monkey DLL4 extracellular domain (cynomolgus monkey). The experiment is described as follows: Biacore SPR.
The target is the same in experiment [2]. The experiment is described as follows: binding ELISA.
The target is the same in experiment [3]. The experiment is described as follows: Biacore SPR; head says nM, kd/ka gives M.

Changes are numbered by the printed parent chain.

B1: h1A11.1 (antibody, V domains shown)
VH: EVQLVESGGGLVQPGGSLRLSCAASGFTFSNFPMAWVRQAPGKGLEWVATISSSDGTTYYRDSVKGRFTISRDNAKNSLYLQMNSLRAEDTAVYYCARGYYNSPFAYWGQGTLVTVSS
VL: DIQMTQSPSSLSASVGDRVTITCRASEDIYSNLAWYQQKPGKAPKLLIYDTNNLADGVPSRFSGSGSGTDFTLTISSLQPEDFATYYCQQYNNYPPTFGQGTKLEIKR
Take B1: in experiment [1], the koff was 0.00255 s⁻¹ and the kon stood at 144000 M⁻¹ s⁻¹. This molecule also registered an EC50 in experiment [2] of 0.13 nM. Also, the Kd in experiment [3] was found to be 18 nM.

B2: h1A11.G3 (antibody, V domains shown)
VH: B1 VH with S30R, N31Y, A35S, T50S, S53G, T57W, T58A, Y59S
VL: DIQMTQSPSSLSASVGDRVTITCRASQEIYRNLAWYQQKPGKSPKLLIFDTSVLADGVPSRFSGSGSGTDSTLTISSLQPEDFATYYCQQYTYYPPTFGQGTKLEIK
B2: in experiment [1], the koff stood at 1.73e-05 s⁻¹ and the kon was found to be 99000 M⁻¹ s⁻¹. Also, the Kd in experiment [3] amounted to 0.17 nM.

B3: h1A11.A11 (antibody, V domains shown)
VH: B1 VH with S30R, N31H, G56D, T57W, T58P, Y59N, N77S, A97S
VL: B2 VL with Q27E, E28D, R31S, S43A, F49Y, S52N, V53N, S71F, T92N, Y93N
In experiment [1], B3 showed an off-rate (koff) of 3.35e-05 s⁻¹ and a kon of 170000 M⁻¹ s⁻¹. Besides, the Kd in experiment [3] was determined as 0.2 nM.

B4: h1A11.A8 (antibody, V domains shown)
VH: B1 VH with S30G, A35S, T50S, G56S, T57W, T58A, Y59T, Y60I, R61G, A97S
VL: B2 VL with Q27E, E28D, R31S, S43A, F49Y, S52N, V53N, S71F, T92N, Y93N
In experiment [1], B4 displayed an off-rate constant (koff) of 2.4e-05 s⁻¹ and a kon of 160000 M⁻¹ s⁻¹. The Kd in experiment [3] came to 0.15 nM.

B5: h1A11.A2 (antibody, V domains shown)
VH: B1 VH
VL: B2 VL with E28D, R31I, S52N, V53D, S71F, T92D, Y94V
In experiment [1], B5 displayed a koff of 0.000527 s⁻¹ and a kon of 134000 M⁻¹ s⁻¹. In addition, the Kd in experiment [3] stood at 3.9 nM.

B6: h1A11.A7 (antibody, V domains shown)
VH: B1 VH
VL: B2 VL with E28D, R31I, S43A, V53D, S71F, T92D
Take B6: in experiment [1], the koff was determined as 0.00124 s⁻¹ and the on-rate (kon) is 158000 M⁻¹ s⁻¹. The same molecule returned a Kd in experiment [3] of 7.8 nM.

B7: h1A11.15 (antibody, V domains shown)
VH: B1 VH with A75S, N77S, S78T, A97S
VL: B1 VL with Y49F
The molecule B7 had an EC50 in experiment [2] of 0.13 nM.

B8: h1A11.C6 (antibody, V domains shown)
VH: B1 VH with S30R, T57W, T58P, Y59T, N77S, A97S
VL: B2 VL with Q27E, E28D, R31S, S43A, F49Y, S52N, V53N, S71F, T92N, Y93N
In experiment [1], B8 showed an off-rate constant (koff) of 3.12e-05 s⁻¹ and a kon of 171000 M⁻¹ s⁻¹. In experiment [3], this molecule gave a Kd of 0.18 nM.

B9: h1A11.B5 (antibody, V domains shown)
VH: B1 VH with S30R, N31Y, A35S, T50S, S53G, T57W, T58A, Y59S, Y107S
VL: B2 VL with E28D, Y30W, R31N, V53Y, S71F, T92D, Y93W
In experiment [1], B9 returned a koff of 0.000178 s⁻¹ and a kon of 117000 M⁻¹ s⁻¹. The same molecule came in with a Kd in experiment [3] of 1.5 nM.

B10: h1A11.16 (antibody, V domains shown)
VH: B1 VH with A75S, N77S, S78T, A97S
VL: EIVMTQSPATLSVSPGERATLSCRASEDIYSNLAWYQQKPGQSPRLLIFDTNNLADGVPARFSGSGSGTESTLTISSLQSEDFAVYFCQQYNNYPPTFGQGTKLEIKR
In experiment [2], B10 yielded a concentration for a half-maximal effect (EC50) of 0.12 nM.

B11: h1A11.A6 (antibody, V domains shown)
VH: B1 VH with S30R, N31H, G56A, T57W, T58P, Y59S, A97S
VL: B2 VL with Q27E, E28D, R31S, S43A, F49Y, S52N, V53N, S71F, T92N, Y93N
Turning to B11, in experiment [1], the koff is 2.1e-05 s⁻¹ and the kon worked out at 171000 M⁻¹ s⁻¹. Besides, the equilibrium dissociation constant (Kd) in experiment [3] stood at 0.12 nM.

B12: h1A11.B4 (antibody, V domains shown)
VH: B1 VH
VL: B2 VL with E28D, R31Y, S43A, S52N, V53I, S71F, Y87F, T92D, Y94V
Take B12: in experiment [1], the koff was 0.00099 s⁻¹ and the kon came out at 143000 M⁻¹ s⁻¹. In experiment [3], this molecule registered a dissociation constant Kd of 6.9 nM.

B13: h1A11.F5 (antibody, V domains shown)
VH: B1 VH with S30R, N31H, G56A, T57W, T58P, Y59S
VL: B2 VL
In experiment [1], B13 returned a koff of 2e-05 s⁻¹ and a kon of 118000 M⁻¹ s⁻¹. Further, the Kd in experiment [3] was 0.17 nM.

B14: h1A11.A12 (antibody, V domains shown)
VH: B1 VH
VL: B2 VL with E28D, R31Y, V53S, S71F, Y87F, T92D, Y93W
On to B14, for which, in experiment [1], the koff came to 0.00162 s⁻¹ and the kon turned out to be 158000 M⁻¹ s⁻¹. The molecule further yielded a Kd in experiment [3] of 10 nM.

B15: h1A11.H2 (antibody, V domains shown)
VH: B1 VH with S30G, A35S, T50S, G56S, T57W, T58A, Y59T, Y60I, R61G, Y107F
VL: B2 VL
As for B15, in experiment [1], the koff is 4.6e-05 s⁻¹ and the kon is 131000 M⁻¹ s⁻¹. This molecule came in with a Kd in experiment [3] of 0.35 nM.

B16: h1A11.E12 (antibody, V domains shown)
VH: B1 VH with S30R, N31Y, S53G, G56E, T57W, T58P, Y59N, Y107F
VL: B2 VL
B16: in experiment [1], the koff worked out at 3.84e-05 s⁻¹ and the kon came to 137000 M⁻¹ s⁻¹. In experiment [3], this molecule came in with a Kd of 0.28 nM.

B17: 1A11 chimeric antibody (antibody, V domains shown)
VH: EVQLVESGGGLVQPGRSMKLSCAASGFTFRNFPMAWVRQAPTRGLEWVATISSSDGTTYYRDSVKGRFTISRDNAKSTLYLQVNSLRSEDTATYYCSRGYYNSPFAYWGQGTLVTVSS
VL: DIQMTQSPASLSASLGETVTIECRASEDIYSNLAWYQQKPGNSPQLLIFDTNNLADGVPSRFSGSGSGTQSSLKINSLQSEDVASYFCQQYNNYPPTFGGGTKLELKR
As to B17, the EC50 in experiment [2] turned out to be 0.33 nM.

These data come from patent US20160031986A1.
